T1: full-length beta-Catenin (Uniprot ID P35222) (Homo sapiens (Human), UniProt P35222 1-781)
T1 construct: The assay protocols call it full-length; also called B-Catenin; bCat
T1 sequence: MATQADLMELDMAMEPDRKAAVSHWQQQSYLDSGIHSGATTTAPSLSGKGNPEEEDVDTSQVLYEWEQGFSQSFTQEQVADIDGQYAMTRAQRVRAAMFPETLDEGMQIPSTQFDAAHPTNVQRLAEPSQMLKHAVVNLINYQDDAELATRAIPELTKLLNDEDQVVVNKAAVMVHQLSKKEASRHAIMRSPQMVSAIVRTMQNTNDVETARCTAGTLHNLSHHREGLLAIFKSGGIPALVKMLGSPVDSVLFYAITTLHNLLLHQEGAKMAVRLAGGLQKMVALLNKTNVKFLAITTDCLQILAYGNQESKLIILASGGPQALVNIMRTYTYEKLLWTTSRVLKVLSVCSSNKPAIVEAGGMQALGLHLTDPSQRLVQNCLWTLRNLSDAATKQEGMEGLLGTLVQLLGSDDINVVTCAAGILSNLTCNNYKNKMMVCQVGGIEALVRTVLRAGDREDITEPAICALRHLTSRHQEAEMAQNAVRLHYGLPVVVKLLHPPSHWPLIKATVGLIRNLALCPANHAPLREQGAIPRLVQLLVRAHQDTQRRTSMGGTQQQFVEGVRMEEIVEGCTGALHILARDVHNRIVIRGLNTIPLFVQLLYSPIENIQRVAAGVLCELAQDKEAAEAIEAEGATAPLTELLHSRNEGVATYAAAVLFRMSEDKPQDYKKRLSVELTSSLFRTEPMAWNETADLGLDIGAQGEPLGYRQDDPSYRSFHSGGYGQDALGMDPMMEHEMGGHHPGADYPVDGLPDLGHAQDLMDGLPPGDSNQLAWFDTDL

T2: B-cat-Halo (beta-catenin HaloTag fusion expressed in HEK293 cells) (Homo sapiens (Human), UniProt P35222 1-781)
T2 sequence: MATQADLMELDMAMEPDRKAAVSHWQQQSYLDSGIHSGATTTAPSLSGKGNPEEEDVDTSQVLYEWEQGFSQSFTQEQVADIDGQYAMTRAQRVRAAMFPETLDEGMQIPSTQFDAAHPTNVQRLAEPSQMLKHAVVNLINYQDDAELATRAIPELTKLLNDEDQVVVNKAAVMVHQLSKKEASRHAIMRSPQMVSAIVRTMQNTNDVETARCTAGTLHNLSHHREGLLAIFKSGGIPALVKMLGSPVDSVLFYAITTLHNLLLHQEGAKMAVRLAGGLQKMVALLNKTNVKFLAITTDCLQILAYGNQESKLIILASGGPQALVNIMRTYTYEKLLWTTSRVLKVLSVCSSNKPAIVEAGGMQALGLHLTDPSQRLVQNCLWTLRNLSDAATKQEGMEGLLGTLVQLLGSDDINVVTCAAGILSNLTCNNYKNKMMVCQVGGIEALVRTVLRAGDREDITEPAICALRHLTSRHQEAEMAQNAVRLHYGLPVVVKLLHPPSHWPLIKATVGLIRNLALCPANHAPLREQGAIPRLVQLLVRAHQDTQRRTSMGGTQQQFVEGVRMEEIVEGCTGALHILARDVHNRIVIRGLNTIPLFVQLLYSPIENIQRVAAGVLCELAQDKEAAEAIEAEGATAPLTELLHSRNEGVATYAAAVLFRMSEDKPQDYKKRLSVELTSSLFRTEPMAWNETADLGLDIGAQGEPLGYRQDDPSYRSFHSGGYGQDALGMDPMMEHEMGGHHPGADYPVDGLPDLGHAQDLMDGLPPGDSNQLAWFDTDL

T3: B-cat-Halo (beta-catenin HaloTag NanoBRET construct expressed in HEK293 cells) (UniProt P35222 1-781)
T3 sequence (looked up): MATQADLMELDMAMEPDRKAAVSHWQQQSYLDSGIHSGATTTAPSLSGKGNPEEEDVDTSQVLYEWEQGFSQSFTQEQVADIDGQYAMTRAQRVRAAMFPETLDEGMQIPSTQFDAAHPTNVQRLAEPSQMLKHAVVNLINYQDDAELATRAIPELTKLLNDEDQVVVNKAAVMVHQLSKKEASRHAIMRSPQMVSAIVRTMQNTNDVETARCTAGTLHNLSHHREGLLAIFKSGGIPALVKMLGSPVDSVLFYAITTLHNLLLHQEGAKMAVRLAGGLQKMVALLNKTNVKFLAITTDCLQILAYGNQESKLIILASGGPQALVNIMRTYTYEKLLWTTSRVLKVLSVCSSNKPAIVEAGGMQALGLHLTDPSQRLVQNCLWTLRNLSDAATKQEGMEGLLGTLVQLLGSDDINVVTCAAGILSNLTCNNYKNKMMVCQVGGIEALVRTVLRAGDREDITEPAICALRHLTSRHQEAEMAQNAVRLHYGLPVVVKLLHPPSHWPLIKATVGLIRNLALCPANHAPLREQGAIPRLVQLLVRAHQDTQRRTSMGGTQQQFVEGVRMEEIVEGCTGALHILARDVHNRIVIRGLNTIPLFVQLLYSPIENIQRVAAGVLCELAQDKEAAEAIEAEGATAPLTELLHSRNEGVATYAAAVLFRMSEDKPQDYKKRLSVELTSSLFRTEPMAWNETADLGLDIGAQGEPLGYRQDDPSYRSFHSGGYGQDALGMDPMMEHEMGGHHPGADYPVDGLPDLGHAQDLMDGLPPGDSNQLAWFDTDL

B1: I-290 (peptide)
peptide: XDAXDDAAFVXFW
modifications: not fully specified; N-terminal Ac; PL3 at 1; B5 at 4; S8 at 11; C-terminal NH2; staples PL3(1)-B5(4) and B5(4)-S8(11) by olefin metathesis
notes: Stapled (stitched) peptide; also called Ac-PL3-Asp-Ala-B5-Asp-Asp-Ala-Ala-Phe-Val-S8-Phe-Trp-NH2
B2: I-823 (peptide)
peptide: Ac-[αAllylPro]D[tBuAla][B5(7)]DDAAFN[PyrS2][3Thi][Bta]H[dA]-NH2
modifications: staple 1-4, 4-11
B3: I-815 (peptide)
peptide: Ac-[αAllylPro]D[tBuAla][B5]DDAAFN[PyrS2″][3Thi][Bta]S-NH2
modifications: staple 1-4, 4-11
B4: I-814 (peptide)
peptide: Ac-[αAllylPro]D[tBuAla][B5]DDAAFN[PyrS2″][3Thi][Bta]T-NH2
modifications: staple 1-4, 4-11
B5: I-835 (peptide)
peptide: Ac-[αAllylPro]D[tBuAla][B5(3)]DDAAFN[PyrS3″][3Thi][Bta]N[dA]-NH2
modifications: staple 1-4, 4-11
B6: I-817 (peptide)
peptide: Ac-[αAllylPro]D[tBuAla][B5]DDAAFN[PyrS2″][3Thi][Bta][dT]-NH2
modifications: staple 1-4, 4-11
B7: I-831 (peptide)
peptide: Ac-[αAllylPro]D[tBuAla][B5(7)]DDAAFN[PyrS3][3Thi][Bta]Q[dA]-NH2
modifications: staple 1-4, 4-11
B8: I-836 (peptide)
peptide: Ac-[αAllylPro]D[tBuAla][B5(3)]DNAAFN[PyrS2″][3Thi][Bta]Q-NH2
modifications: staple 1-4, 4-11
B9: I-822 (peptide)
peptide: Ac-[αAllylPro]D[tBuAla][B5]DDAAFN[PyrS2″][3Thi][Bta]Q[dA]-NH2
modifications: staple 1-4, 4-11
B10: I-819 (peptide)
peptide: Ac-[αAllylPro]D[tBuAla][B5]DDAAFN[PyrS2″][3Thi][Bta]QA-NH2
modifications: staple 1-4, 4-11
B11: I-820 (peptide)
peptide: Ac-[αAllylPro]D[tBuAla][B5]DDAAFN[PyrS2″][3Thi][Bta]HA-NH2
modifications: staple 1-4, 4-11
B12: I-818 (peptide)
peptide: Ac-[αAllylPro]D[tBuAla][B5]DDAAFN[PyrS2″][3Thi][Bta][dN]-NH2
modifications: staple 1-4, 4-11
B13: I-809 (peptide)
peptide: Ac-[αAllylPro]D[tBuAla][B5(3)]DDAAFT[PyrS2″][3Thi][Bta]Q-NH2
modifications: staple 1-4, 4-11
B14: I-892 (peptide)
peptide: Ac-[αAllylPro]D[tBuAla][B5(3)]DDAK(mPEG2)FN[PyrS2][3Thi][Bta]Q-NH2
modifications: staple 1-4, 4-11; not fully specified
B15: I-890 (peptide)
peptide: Ac-[αAllylPro]D[tBuAla][B5(3)]DDAK(MeMorphBz)FN[PyrS2″][3Thi][Bta]Q-NH2
modifications: staple 1-4, 4-11
B16: I-897 (peptide)
peptide: Ac-[αAllylPro]D[tBuAla][B5(3)]DDAK(Butyryl)FN[PyrS2][3Thi][Bta]Q-NH2
modifications: staple 1-4, 4-11
B17: I-889 (peptide)
peptide: Ac-[αAllylPro]D[tBuAla][B5(3)]DDAK(4MePipBz)FN[PyrS2″][3Thi][Bta]Q-NH2
modifications: staple 1-4, 4-11

Starred links: 1 amine or outer side, 2 acyl side, 3 side chain; linkers in the order of their positions; H or OH if unused. Positions of bridges follow the written chain, without caps; N, C: chain ends. Non-standard residues stand in square brackets, D forms with d. Primed or numbered codes have the meaning given here. *: point of attachment. PyrS2″ = (S)-3-amino-1-((pent-4-en-1-yloxy)carbonyl)pyrrolidine-3-carboxylic acid (stapling residue), C=CCCCOC(=O)N1CC[C@@](N[*:1])(C(=O)[*:2])C1; PyrS3″ = (S)-3-amino-1-((hex-5-en-1-yloxy)carbonyl)pyrrolidine-3-carboxylic acid (stapling residue), C=CCCCCOC(=O)N1CC[C@@](N[*:1])(C(=O)[*:2])C1; PyrS2 = (S)-3-amino-1-((pent-4-en-1-yloxy)carbonyl)pyrrolidine-3-carboxylic acid, C=CCCCOC(=O)N1CC[C@@](N[*:1])(C(=O)[*:2])C1; PyrS3 = (S)-3-amino-1-((hex-5-en-1-yloxy)carbonyl)pyrrolidine-3-carboxylic acid, C=CCCCCOC(=O)N1CC[C@@](N[*:1])(C(=O)[*:2])C1; B5(7) = 2-amino-2-(pent-4-en-1-yl)hept-6-enoic acid, two olefinic side chains, C=CCCCC(CCCC=C)(N[*:1])C(=O)[*:2]; 4MePipBz = 4-((4-methylpiperazin-1-yl)methyl)benzoyl on Lys side chain, CN1CCN(Cc2ccc(C(=O)*)cc2)CC1; B5(3) = 2,2-bis(4-pentenyl)glycine (stitching residue), C=CCCCC(CCCC=C)(N[*:1])C(=O)[*:2]; MeMorphBz = 4-(morpholinomethyl)benzoyl on Lys side chain, O=C(c1ccc(CN2CCOCC2)cc1)*; B5 = 2-amino-2-(pent-4-en-1-yl)hept-6-enoic acid, C=CCCCC(CCCC=C)(N[*:1])C(=O)[*:2]; Bta = N[C@@H](Cc1csc2ccccc12)C(=O)O; αAllylPro = C=CC[C@@]1(C(=O)O)CCCN1; tBuAla = CC(C)(C)C[C@H](N)C(=O)O; 3Thi = N[C@@H](Cc1ccsc1)C(=O)O; Butyryl = CCCC(=O)*

The target in one test is T1, full-length beta-Catenin (Uniprot ID …). Briefly: AlphaScreen competition; full-length beta-catenin with biotin-labelled TCF4 10-53 peptide as competitor. The protocol: Equal volume of the titrated peptide was added to the plate and incubated for 15 minutes at 20° C. Then 4 uL of donor and 4 uL acceptor beads at 10 ug/mL were added to the plate, for a 16 uL reaction pool and protected from light for 60 minutes at 20° C. prior to read. Reads were performed on a CLARIOstar plate reader (BMG Labtech) in duplicate, and data were fitted to a 1:1 binding model with hill slope using an in-house script. All provided concentrations are final concentrations.
A word on the EC50: it is the concentration that produces a half-maximal response. B1 came in with an EC50 of 0.303 µM.

For another test the target is unchanged. Briefly: fluorescence polarization competition; full-length beta-catenin with 5FAM-labelled TCF4 10-53 peptide as competitor. As to the method:
The plate was incubated protected from light for 60 minutes at 20° C. prior to read. Reads were performed on a CLARIOstar plate reader (BMG Labtech) in duplicate, and data were fitted to a 1:1 binding model with hill slope using an in-house script. All provided concentrations are final concentrations.
Molecule B1 had an EC50 of 3.29 µM.

For another test, the target named is T2, B-cat-Halo (beta-catenin HaloTag fusion …). Briefly: cell-based or functional assay.
With B2, the “NanoBRET % inh @ 10 uM” value is 37.5% and the “NanoBRET IC50” value is more than 10 µM.

Turning to B3, the “NanoBRET IC50” value came to 11.8 µM.

Regarding B4, the “NanoBRET IC50” value stood at 12.7 µM.

As to B5, the “NanoBRET % inh @ 10 uM” value was 27.6%.

In the case of B6, the “NanoBRET % inh @ 10 uM” value was 45% and the “NanoBRET IC50” value is 6.8 µM.

For B7, the “NanoBRET % inh @ 10 uM” value was 32.4%.

With B8, the “NanoBRET Abs IC50” value was determined as 16.9 µM.

As to B9, the “NanoBRET % inh @ 10 uM” value is 53% and the “NanoBRET IC50” value was 7.7 µM.

Take B10: the “NanoBRET % inh @ 10 uM” value came out at 37.8%.

Consider B11, for which the “NanoBRET % inh @ 10 uM” value stood at 30.8%.

On to B12, for which the “NanoBRET % inh @ 10 uM” value is 31.4%.

Regarding B13, the “NanoBRET IC50” value came out at 11.7 µM.

The target of another test is T3, B-cat-Halo (beta-catenin HaloTag …). Briefly: cell-based or functional assay.
Turning to B14, the “NanoBRET Abs IC50” value was more than 20 µM.

As to B15, the “NanoBRET Abs IC50” value is more than 20 µM.

Take B16: the “NanoBRET Abs IC50” value was more than 20 µM.

As to B17, the “NanoBRET Abs IC50” value was more than 20 µM.

For the origin of these results see patent publication US20240116985A1 (published 2024).
